Source: publication doi:10.1101/2021.02.05.428650 (bioRxiv, 2021)
Where “and” joins values, the source holds several entries; their conditions need not be identical. Equal values may be shown once.

Biological target: the molecule itself
Assay: SDS-PAGE and Western blot after detergent removal

Protein: MIELSLIDFYLCFLAFLLFLVLIMLIIFWFSLELQDHNETCHA (natural protein) [ORF7b from SARS-CoV-2]
- stoichiometry N: ≤ 10 and 5
